The test has as its target KCC2 (SLC12A5), neuron-specific K+/Cl- transporter (mouse (endogenous in brain)) (UniProt Q91V14). Kind of test: co-IP.

Ratio of PP1/KCC2 immunoreactivity in LMTK3 KO mice, percent of WT data for one substance are collected here from paper PMC11075064.

UniProt Q91V14, sequence (Q91V14 whole entry): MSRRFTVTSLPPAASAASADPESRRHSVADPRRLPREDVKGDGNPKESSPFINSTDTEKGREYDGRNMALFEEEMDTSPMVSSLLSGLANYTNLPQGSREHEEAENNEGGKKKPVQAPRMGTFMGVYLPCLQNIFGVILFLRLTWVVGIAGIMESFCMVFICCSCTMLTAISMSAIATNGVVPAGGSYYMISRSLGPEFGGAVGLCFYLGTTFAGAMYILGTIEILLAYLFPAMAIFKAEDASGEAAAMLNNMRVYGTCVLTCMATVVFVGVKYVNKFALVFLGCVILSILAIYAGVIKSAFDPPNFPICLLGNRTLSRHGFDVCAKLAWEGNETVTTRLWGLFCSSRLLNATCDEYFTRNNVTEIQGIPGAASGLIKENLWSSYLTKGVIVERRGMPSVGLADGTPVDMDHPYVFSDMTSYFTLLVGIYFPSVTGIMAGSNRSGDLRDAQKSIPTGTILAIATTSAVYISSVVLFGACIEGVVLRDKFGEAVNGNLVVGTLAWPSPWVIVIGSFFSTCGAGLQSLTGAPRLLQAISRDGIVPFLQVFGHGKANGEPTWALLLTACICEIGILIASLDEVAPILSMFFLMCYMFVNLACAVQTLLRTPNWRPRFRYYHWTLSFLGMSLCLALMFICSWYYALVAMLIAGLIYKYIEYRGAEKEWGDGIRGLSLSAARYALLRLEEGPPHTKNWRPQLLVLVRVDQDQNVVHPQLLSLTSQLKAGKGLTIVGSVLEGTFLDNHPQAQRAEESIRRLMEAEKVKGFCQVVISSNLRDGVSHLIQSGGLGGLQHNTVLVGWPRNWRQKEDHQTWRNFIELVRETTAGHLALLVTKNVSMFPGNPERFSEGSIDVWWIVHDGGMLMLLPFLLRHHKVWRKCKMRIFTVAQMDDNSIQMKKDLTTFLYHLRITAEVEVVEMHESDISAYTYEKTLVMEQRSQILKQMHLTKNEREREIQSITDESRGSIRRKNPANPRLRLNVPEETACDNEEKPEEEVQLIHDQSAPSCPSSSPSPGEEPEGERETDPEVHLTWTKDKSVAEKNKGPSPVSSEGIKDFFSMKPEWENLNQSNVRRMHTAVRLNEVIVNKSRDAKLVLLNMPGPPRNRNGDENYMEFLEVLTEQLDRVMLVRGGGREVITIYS

Take “catalytic subunit of protein phosphatase-1 (PP1) (from UniProt P62137 1-330) (enzyme)”: the ratio of PP1/KCC2 immunoreactivity in LMTK3 KO mice, percent of WT was 28.6 % of WT.
